According to PMC4779955:

Target: T1, Lin28A (GST-His6 fusion) (Homo sapiens, UniProt Q9H9Z2 1-209)
T1 sequence: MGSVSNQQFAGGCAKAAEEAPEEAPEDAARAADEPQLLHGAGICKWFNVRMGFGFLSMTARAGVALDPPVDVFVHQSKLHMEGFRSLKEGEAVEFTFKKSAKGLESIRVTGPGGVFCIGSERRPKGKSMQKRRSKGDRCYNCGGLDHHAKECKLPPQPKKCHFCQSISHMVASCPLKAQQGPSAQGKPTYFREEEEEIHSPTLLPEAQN
Assay: EMSA

B1: Motif1 bubble duplex (dsDNA)
DNA 1: CTTCTGGCGCTGTCCATCACAAGGTGCTGAACCCAG
DNA 2: CTGGGTTCAGCACCATTTTTTGCGCCAGAAG
binding result: binds
